Data on 2 molecules can be found in US8119387B2, “Polypeptides of strain Bacillus sp. P203” (Novozymes A/S, priority 2005, dated 2012).

Series [1] deals with recombinant carbonic anhydrase (SEQ ID NO: 4) from Bacillus sp. P203 (Alkalicoccobacillus plakortidis, UniProt A0ABT0XM38). The note with it: read-out: IC50, inhibition of recombinant carbonic anhydrase; purified recombinant enzyme from Bacillus sp. P203.
Method: A standard assay contained 900 microliter of PNPA, 10 microliter of 300 mM Tris pH 7.5 and 90 microliter of carbonic anhydrase protein solution. After a pre-incubation for 5 min, the enzyme was added to the PNPA buffer mixture and the increase in absorbance (due to the hydrolysis of the substrate and release of p-nitrophenol) at 348 nm was monitored photometrically in a quartz cuvette over a period of 10 min. As a positive control for both activity assays, a solution of bovine carbonic anhydrase (Calbiochem, 1 mg per mL) may be used.
Enzyme was pre-incubated with 1 mM of the substances for 1 h on ice in a total volume of 50 micro liter before testing activity with 10 micro liter of the mixture with the Wilbur and Anderson, 1948 method. The control with no additives (water) was set to 100% activity. […] Instead activity with 25 micro molar concentration of the chemicals are given.
Series [2] in a line: Temperature and storage stability of purified recombinant carbonic anhydrase (residual activity). The class given is physicochemical. On the procedure:
The carbonic anhydrase activity was determined according to Wilbur. […] 147-154. […] (see FIG. 2).

Sequence of recombinant carbonic anhydrase (SEQ ID NO: 4) from Bacillus sp. P203 (A0ABT0XM38 entry or part of it): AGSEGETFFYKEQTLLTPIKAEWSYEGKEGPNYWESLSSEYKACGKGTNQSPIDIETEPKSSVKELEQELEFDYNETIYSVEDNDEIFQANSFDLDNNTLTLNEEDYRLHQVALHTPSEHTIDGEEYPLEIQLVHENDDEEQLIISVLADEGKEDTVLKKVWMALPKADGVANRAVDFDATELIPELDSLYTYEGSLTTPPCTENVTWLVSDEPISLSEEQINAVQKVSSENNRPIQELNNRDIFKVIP

Turning to `[N-]=[N+]=[N-]` [azide], the IC50 (commonly the concentration at which inhibition is half-maximal) in series [1] came to 500 µM.

B1: recombinant carbonic anhydrase: purified recombinant carbonic anhydrase (SEQ ID NO: 4) from strain Bacillus sp. P203 (protein)
chain: MRKTNVLLKSTMITTLLLSSTLLVTTPIYAHTETQQLSYKTLNDLLTEDGHSGWSYSGLTGPEYWGELNEDYKACSKGEEQSPIALQNEDIDNEKWSFDLDYEETEFSIENNGHTIQANVEGSSSNTLLLNDTEYNLVQFHFHSPSEHTLDDEYFEMEVHLVHQDEHANLAVLGVLIEEGEQNETLTDMWELMPGQQGEAAERITLNPSELVPSDLSTFQYDGSLTTPPCSEDVKWSVSDSTISLSPEQLEAFQDLYPNNYRPIQDLGNREVGFHY
modifications: Bacillus sp. P 203
notes: P203
For B1, the “activity remaining after storage” value was 97+/−4 % of original activity in series [2] (4° C. in buffer F for a week); 95+/−4 % of original activity in series [2] (room temperature (20° C.), buffer F); 99+/−4 % of original activity in series [2] (−20° C. for one week in buffer F). Besides, in series [2] (buffer F supplemented with 1 mM dithiothreitol (DTT)), the “effect of storage with DTT on stability” value is listed as “stabilize the enzyme”. For the same molecule, in series [2] (temperatures over 37° C., tested 4-60° C. for 1 and 17 h (FIG. 2)), the “stability at elevated temperature” value is “rapidly decreased”.
